16 sequences from the DeepSol protein solubility set can be followed below.

The series is described as follows: soluble on expression in E. coli; label from the status in PepcDB or PDB records.
Consider “MGSDKIHHHHHHMKPIDQITSWMQEALRPYFGLEPLSAEWDILTVRDGYFICFDGDTIRKRITATELNYQEEDVIIQTSEREVVLPRTARGKEKKLTYTSVSSVMADGIVFSAGIRTLNSGRYGYINVSNYRNSIRLPLPECRDLASKGEIVEWLQSYRERVPADYAHKLERLMHMKNRQHKTIPGDVFRVEIDLHTDGYVLVIGNLRQMQKDELFAEHSIWNDVMTMPLFVRPYLFRTTVRNPSLSEIVASPLSDKCWIVMDNAFLRGNYEYVGSKILAEEDILFPVGYGSSISAQKSDYRLSWGPNSISKASQDTGLKAGRSYMNNGAYSSVSADCFVDRGFPDWDKTLLNPEHLEAWEQVLAEFGFPPDTTYDAFAQRTDGMTRAAYLTYVAENKAYQRKGRAKKKGS”, for which the “soluble on expression in E. coli” value was “not soluble”.

“MGSDKIHHHHHHMKPLRKIRLGIVGCGIAARELHLPALKNLSHLFEITAVTSRTRSHAEEFAKMVGNPAVFDSYEELLESGLVDAVDLTLPVELNLPFIEKALRKGVHVICEKPISTDVETGKKVVELSEKSEKTVYIAENFRHVPAFWKAKELVESGAIGDPVFMNWQIWVGMDENNKYVHTDWRKKPKHVGGFLSDGGVHHAAAMRLILGEIEWISAVAKDLSPLLGGMDFLSSIFEFENGTVGNYTISYSLKGNERFEITGTKGKISISWDKIVLNEEEMKVPQENSYQKEFEDFYQVVAEGKPNDLGSPVQALKDLAFIEACVRSAGNKVFVSSLL”: the “soluble on expression in E. coli” value is reported as “soluble”.

“MGSDKIHHHHHHMKPRKQDEKILSDQYSYFEPIISDSCDIKFDGDKRRIGSIFISHEEICFIRKEEDYIFKISLSDVVDYNTVVTIWKNQASLTLNDNRKITFYFVTNSPLTGFISILKTYMQLSRNKETIIPDDNLLINDDDEQTKVEIFDVVGLNYEGRRKELKKLIKKMKTNDAFFFLYSDLKGNELKEELLYEDKVYEIPDYEVIPGVFLQKEPDNPYDENAIKVMISNEYSEFHVGYVPREYASRLVNYIEDTVSCNAYINGGKYKTLDYLEEKIVTKESDYGLRIHVEYKV”: the “soluble on expression in E. coli” value is “not soluble”.

Take “MGSDKIHHHHHHMKQAEEVIHPEALSGTGIMTISREPVVFHCNHYNRFLQLVIEDCHYIDREPILVGSATEVSFRQLRTAFREHPEWSVANRLKYAESMYRFCGFGDLPLGALPHSAEPEFVLVENHSHYGTALRLNYGKRRWPGEHFDLGYAIGALSAIYGQPYGGKIDATALSTGAETTRFHLHLRNSGDRFPLDIPDIPQAVLPQGADQVPPRHIGLHIDEDAIMTAVGTLPLTGDPDGLIPAFGVYLTRHYADYYNLVSFRFERALQEALNTHRYLGEMLWYEYPTLFYYKEKFEHLQGQALARTLLMEAGHICGFNTMGGIMRSDPWYQLIVPQLQCREDWLSGIIACINALGWGVWRIQEIIPNERLILRAWYPYESLGHLRAFGPADHPIDYLMTGIGSSLMNLLYTADITTRPDLTLEFYYQVNRSKAGFWARQTRCMAMGDPYSEVVVERNIL”: the “soluble on expression in E. coli” value was “not soluble”.

Consider “MGSDKIHHHHHHMKQIIDIENWERKENFNFFRHFQNPQLSITSEVECGGARQRAKAAGQSFFLHYLYAVLRAANEIPEFRYRIDPDGRVVLYDTIDMLSPIKIKENGKFFTTRFPYHNDFDTFYQEARLIIDAIPEDGDPYAAENEEVADGDYGLILLSATPDLYFTSITGTQEKRSGNNYPLLNAGKAIIREGRLVMPIAMTIHHGFIDGHHLSLFYKKVEDFLK”, for which the “soluble on expression in E. coli” value is recorded as “not soluble”.

With “MGSDKIHHHHHHMKRDFLGRTLAVIEDLSVEEQMFLYEKTRELKQRWYSGEDVSDFRIKKRNVGIYIVFVEPSTRTKESFINAAKFHSGPNVKVNVFDSEHSSFNKQESYTDTFSMLTGYSDYSIFVVRTRLEGVCRLLERRISEFASRNGIEVPSFINAGDGKHEHPTQELLDEYTFLEQNGFDNSFIHVALVGDLLHGRTVHSKVNGLKIFKNVKVDLVAPEELMMPEHYVEKMKKNGFEVRIFSSIREYLDQKDVAKIWYFTRLQLERMGEDILEKVHVLREAVTFKKEYLDALPEGVKFYHPLPRHKVYPTIPNFLDTLPLNGWETQARNGYWVRIVLLSMFGGALEAPFDTSKKEEKPEEDFIIPAPITHGSKGVQKEGKRGIKPIENGTVIDHIAKGKTPEEIYSTILKIRKILRLYDVDSADGIFRSSDGSFKGYISLPDRYLSKKEIKKLSAISPNTTVNIIKNSTVVEKYRIKLPPTIYGFEELRCKNENCITNPAHGENASPSFVRNEKGQFICEYCETPHSFEEIWSI”, the “soluble on expression in E. coli” value is “not soluble”.

Consider “MGSDKIHHHHHHMKRKINYTHIAEPTVFENVFPTYLTNETMMARKQKVLQRMETEKFDQLVFYADKEHGSNFEYLTGFIPRFEEGLLVLNKDGAATLILGNENLKLCQHARISADLIHYLAFSLPNQPMAGEQKLSQIFETLLDETAQKIGIVGWKMFTTQQQEPATMFDVPHFIVEALKKALPKEARLLNGTHLLIGAKGARATNNANELAHYEYGANLASRSMLKALNAIEIGQRETDIGALLNDEGQTPTVVTIAATGQRFEYANMYPTAKEIQLGDALSLTTGYKGGLSSRTGFVIENEQQLPEAQRDYLERVAKPYFQAVVHWLETIRIGLLGREMYQAIEEQLPKEIYHWHLNPGHLVSDDEWMSSPIYPDSAIRLESGMLFQVDIIPSVPGYTGVSAEECVALADETLQKEIQQTYPDMWQRIATRKAYLKETLKLDLPSEVLPMSNLVGYLRPFYLAKDKALCVEKPALK”, for which the “soluble on expression in E. coli” value is reported as “not soluble”.

For the sequence “MGSDKIHHHHHHMKRLDGIPESMLIPLIARAKEYEYEKPIIKDALSKKIFDGLDDIYKNVTCDDMSQIGISIRSVIIDSVTKRLIKDNKNLIVINIGCGLDTRFQRFNNEKISWIDLDVPESIEIRKTFFKETDSYKMIAKSMLDYSWIEDVINYKFFNSKSNILFIFEGVLMYFDESVMTKLLHTIIKKFGDHNLTFAIEFCSKTIANNTKRHKSVSKLSSQPVFKYGYNDLNELDKVLPNKMKVINEYNYFDYHKKRWGLFGYCRYIPYLKKRLNNKIVIMEYKPAKLITHN”, the “soluble on expression in E. coli” value is given as “not soluble”.

As to “MGSDKIHHHHHHMKRTTKSIQAEIAKGAFRPHTALSTMALAYYQQETTSFAKNMFPVCPVQLSSDNYYVFDKEDLLRDNWNRKPAYGSVDPAVISEHTENYACHVDQMMMGIDNIRQTDLNRRQGPHTKDPRQQRTKVIATQANIHQDAEFSKSFMRKGVWKNEATGTDSVSVTSGQFIKFSNGNSDPIAFFQNKMTEINEETGRTPNRLGLGVNVYNALKEHPAILERVKYGGSTPNPAKVNLNVLAQLFEIDRIVLDRTVQNKAGLGQNADMGYIGDPNSFLLAYATDTPSVEEPSAGYIFTWDMLENGILLPILNYPGAPGTHSELVEGLMAYDMKKTADDLAFFGCDAV”, the “soluble on expression in E. coli” value is given as “not soluble”.

As to “MGSDKIHHHHHHMKSFQLVATAASGLEAIVGKEVARLGYDPKVENGKVYFEGDLSAIARANLWLRVADRVKIVVGVFKATTFDELFEKTKALPWEDYLPLDAQFPVAGKSVKSTLYSVPDCQAIVKKAIVNRVSEKYRRSGRLMETGALFKLEVSILKDEVTLTIDTSGAGLHKRGYRLAQGSAPIKETMAAALVLLTSWHPDRPFYDPVCGSGTIPIEAALIGQNIAPGFNREFVSETWDWMPKQVWADARQEAEDLANYDQPLNIIGGDIDARLIEIAKQNAVEAGLGDLITFRQLQVADFQTEDEYGVVVANPPYGERLEDEEAVRQLYREMGIVYKRMPTWSVYVLTSYELFEEVYGKKATKKRKLYNGYLRTDLYQYWGPRKPRPKKED”, the “soluble on expression in E. coli” value is “not soluble”.

Regarding “MGSDKIHHHHHHMKTAILDRFVFSDEVRDIIENAPEIIIPESRKEILDLAIAGRDLFEVGYEVPGKGFVVEATVTRCKNGLVVNYPEPYMRRRDPNALVVGDNLETDKPRFRERFGKEFEPIRQETFEWLKKQELILLPFMAGGYDYGYPAVLIAPKNAGFFVGGLADLQFFVPASEVPENFKPKLYMFLAPPFRHTHFDGKQVVVHYRHNSHYEIFSYNLYPGPSAKKGVYGFLLHVGEKEKWVTAHASAVKVITPYENELVIMHEGASGGGKSEILEEIHREPDGRIKLAENIVTGEKFYMELKQSCVLMPVADDMFMCHPKLQTGKKLVAKDAEAGWFIRVDHITEYGSAPDLERLTIHPPEPLIFLNIYAVPNSTALIWEHIEDEPGKPCPNPRVIIPKRFMKNAVSEPVKVDVRSFGVRTPPCTKEKPTYGIVGLMQILPPALAWLWRLVAPRGHANPSIVSTKGMTSEGVGSFWPFSSGKMVRLANILLEQIIDTPETRYILVPNQYIGAYKVGFMPEWIAREYLSRRGGVRFRPDQLVPSKCSLLGFSLKEMKIEGNTIPKELLQPHLQSEVGEEAYEKGAQELKDFFKRELKKFLTEDLNPVGREIIQCCLDDGSLDDYLKIIPMNF”, the “soluble on expression in E. coli” value is listed as “not soluble”.

Consider “MGSDKIHHHHHHMKTLCTHSLPKEKMPYLLRSGEGERYLFGRQVATVMANGRSTGDLFEIVLLSGGKGDAFPLHVHKDTHEGILVLDGKLELTLDGERYLLISGDYANIPAGTPHSYRMQSHRTRLVSYTMKGNVAHLYSVIGNPYDHAEHPPYASEEVSNERFAEAAAVADIVFLDEAKPACSAKLAELTELPDGAVPYVLESGEGDRLLTGDQLHRIVAAQKNTDGQFIVVSSEGPKGDRIVDHYHEYHTETFYCLEGQMTMWTDGQEIQLNPGDFLHVPANTVHSYRLDSHYTKMVGVLVPGLFEPFFRTLGDPYEGHIFPCEPQALRFDRILQNIEALDLKVMKP”, for which the “soluble on expression in E. coli” value is “not soluble”.

As to “MGSDKIHHHHHHMKTLKGPAIFLAQFIGDTPPFDKLETMAAWVSSLGYAGVQMPTGGADSFFDLALAAESQTYCDDIAGLLAEYGLEITELSTHLQGQLVAVHPAYDELFDGFAPPELRGKPKERQAWAVEQVKAAAVASRRLGLKAHATFSGSLAWPYLYPWPQRPAGLIEEAFAELGRRWKPILDVFDENGVDAAYEIHPGEDLHDGATFERFLDEVGGHPRANILYDPSHFVLQQLDYLAYIDRYHERIKAFHVKDAEFRPSARSGVYGGYQGWVDRPGRFRSLGDGQVDFKAIFSKLAQYDYDGWAVLEWECALKHPEQGAAEGAPFIRDHIIRVTDKAFDDFASAGSEAGRNRRLLGL”, the “soluble on expression in E. coli” value is recorded as “not soluble”.

As for “MGSDKIHHHHHHMKVKKWVTQDFPMVEESATVRECLHRMRQYQTNECIVKDREGHFRGVVNKEDLLDLDLDSSVFNKVSLPDFFVHEEDNITHALLLFLEHQEPYLPVVDEEMRLKGAVSLHDFLEALIEALAMDVPGIRFSVLLEDKPGELRKVVDALALSNINILSVITTRSGDGKREVLIKVDAVDEGTLIKLFESLGIKIESIEKEEGF”, the “soluble on expression in E. coli” value is reported as “soluble”.

For the sequence “MGSDKIHHHHHHMKVNLPAFERAGVMVVGDVMLDRYWYGPTCRISPEAPVPVVKVNTVEERPGGAANVAMNIASLGANARLVGLTGIDDAARALSKTLAEVNVKCDFVSVPTHPTITKLRVLSRNQQLIRLDFEEGFEGVDPQPLHERINQALGSIGALVLSDYAKGALTSVQTMISLARQAGVPVLIDPKGTDFERYRGATLLTPNLSEFEAVAGKCKSEDELVERGMKLIADYDLSALLVTRSEQGMTLLQPNKAPLHMPTQAQEVYDVTGAGDTVIGVLAATLAAGNTLEEACYFANAAAGVVVGKLGTSTVSPIELENAVRGRADTGFGVMTEEELRQAVASARKRGEKVVMTNGVFDILHAGHVSYLANARKLGDRLIVAVNSDASTKRLKGESRPVNPLEQRMIVLGALESVDWVVSFEEDTPQRLIAGILPDLLVKGGDYKPEEIAGSEEVWANGGEVMVLNFEDGCSTTNIIKKIQTESEK”, the “soluble on expression in E. coli” value was “not soluble”.

With “MGSDKIHHHHHHMKVSVVILNWNGCDMLRTFLPSVIRYSKSEEVEVCVADNGSTDASVEMLREEFPCVRIIVLDQNHGFADGYNLALQQVEAEYVVLLNSDVEVTEHWLEPMISYLDGHPEVAACQPKIRSQRQKEYFEYAGAAGGFIDKYGYPFCRGRIMGVVEKDEGQYDTILPVFWATGAALFIRHADYREAGGLDGRFFAHMEEIDLCWRLRSRGREIVCIPQSTVYHVGGATLKKENPRKTFLNFRNNLVMLYKNLSDEELNKVMRIRTCLDYVAAFTFLLKGQLDNARAVMRARKEYKQICPSFSSSRKENLRKTSLNPIPERIKSSILWQFYVGGCKRFSQLSDLKG”, the “soluble on expression in E. coli” value is “not soluble”.
